Measured values reported in patent publication US20190092850A1 (NUMAB INNOVATION, published 2019).
Changes are numbered by the printed parent chain. One block for each binder: values may come before it.

Assays:
recombinant human TNFα [1] = target: T1, recombinant human TNFα (human, UniProt P01375 77-233); test: SPR (MASS-1), human TNFα immobilised, scFv injected; screening with 90 nM of scFv
T1 construct: also called TNFαtrimer; tumor necrosis factor alpha
Description: (§1) In a second step, for the best performing scFvs, Single Injection Cycle Kinetics (SiCK) were measured from a single injection cycle by simultaneously injecting six analyte samples at different concentrations into each of the eight parallel channels in the MASS-1 system. […] The apparent dissociation (kd) and association (kₐ) rate constants and the apparent dissociation equilibrium constant (KD) were calculated with the MASS-1 analysis software (Analyzer, Sierra Sensors) using one-to-one Langmuir binding model and quality of the fits was monitored based on Chi², which is a measure for the quality of the curve fitting. The smaller the value for the Chi² the more accurate is the fitting to the one-to-one Langmuir binding model. For affinity screenings, results were deemed valid if the Chi² was below 10 for the concentration analyzed. In cases where several scFv concentrations were analyzed, results were deemed valid if the average Chi² over all the concentrations tested was below 10.

Rhesus monkey TNFα = Rhesus monkey TNFα (Rhesus monkey (Macaca mulatta), UniProt P48094 77-233); test: cell-based or functional assay
recombinant human TNFα [2] = target: T1, recombinant human TNFα; test: cell-based or functional assay
[3] = target: recombinant Cynomolgus monkey TNFα (Cynomolgus monkey (Macaca fascicularis), UniProt P79337 77-233); test: cell-based or functional assay
recombinant human TNFα [4] = target: T1, recombinant human TNFα; test: SPR (MASS-1), human TNFα immobilised, two-fold serial dilutions of scFv injected
Description: Affinity was determined using 2-fold serial dilutions of the respective scFvs.
as §1

T1 sequence (P01375 77-233 limits assumed): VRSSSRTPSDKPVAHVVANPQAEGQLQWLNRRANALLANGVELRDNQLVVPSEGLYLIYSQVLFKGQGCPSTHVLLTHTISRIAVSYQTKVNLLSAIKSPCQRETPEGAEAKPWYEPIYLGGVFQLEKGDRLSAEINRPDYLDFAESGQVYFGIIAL
Rhesus monkey TNFα, sequence (P48094 77-233 limits assumed): as the sequence (P01375 77-233 limits assumed) above, with R44T, T72N, R138L counted along it
recombinant Cynomolgus monkey TNFα, sequence (P79337 77-233 limits assumed): as the sequence (P01375 77-233 limits assumed) above, with L37V, R44T, T72N, R138L counted along it

Kd (recombinant human TNFα [1]): 0.7 nM
koff (recombinant human TNFα [1]): 0.00048 s⁻¹
kon (recombinant human TNFα [1]): 680000 M⁻¹ s⁻¹
Species specificity in L929 assay IC50 (ng/ml), rhesus (Rhesus monkey TNFα): 59.7 ng/mL
Neutralization of TNF in L929 assay, rel. IC50 (IC50, Infliximab (ng/ml)/IC50, scFv (ng/ml)) (recombinant human TNFα [2]): 0.6 ratio
Neutralization of TNF in L929 assay, rel. IC90 (IC90, Infliximab (ng/ml)/IC90, scFv (ng/ml)) (recombinant human TNFα [2]): 0.2 ratio
Species specificity in L929 assay IC50 (ng/ml), human (recombinant human TNFα [2]): 12.1 ng/mL
Species specificity in L929 assay IC50 (ng/ml), cyno [3]: 92.1 ng/mL
B1: humanized scFv 16-19-B11-sc01 (CDR graft) (scFv)
scFv: MDIQMTQSPSSLSASVGDRVTITCQASESISSWLAWYQQKPGKAPKLLIYKASTLASGVPSRFSGSGSGTDFTLTISSLQPEDFATYYCQGYYLDSSVDDNVFGGGTKLTVLGGGGGSGGGGSGGGGSGGGGSEVQLVESGGGLVQPGGSLRLSCAASGIDFSTYGISWVRQAPGKGLEWIGYIYPDYGITDYASWVNGRFTISRDNSKNTVYLQMNSLRAEDTAVYYCARSGSYYSRGWGAHYFNLWGQGTLVTVSS

Species specificity in L929 assay IC50 (ng/ml), rhesus (Rhesus monkey TNFα): 1 ng/mL
Neutralization of TNF in L929 assay, rel. IC50 (IC50, Infliximab (ng/ml)/IC50, scFv (ng/ml)) (recombinant human TNFα [2]): 16.2 ratio
Neutralization of TNF in L929 assay, rel. IC90 (IC90, Infliximab (ng/ml)/IC90, scFv (ng/ml)) (recombinant human TNFα [2]): 15 ratio
Species specificity in L929 assay IC50 (ng/ml), human (recombinant human TNFα [2]): 0.4 ng/mL
Species specificity in L929 assay IC50 (ng/ml), cyno [3]: 1.8 ng/mL
Kd (recombinant human TNFα [4]): 0.059 nM
koff (recombinant human TNFα [4]): 5.8e-05 s⁻¹
kon (recombinant human TNFα [4]): 970000 M⁻¹ s⁻¹
B2: humanized scFv 16-19-B11-sc06 (structural graft) (scFv)
scFv: B1 scFv with T23N, A44R, F72Y, G182A, R205L, S208A, K209Q

Kd (recombinant human TNFα [1]): 0.22 nM
koff (recombinant human TNFα [1]): 0.00016 s⁻¹
kon (recombinant human TNFα [1]): 730000 M⁻¹ s⁻¹
Neutralization of TNF in L929 assay, rel. IC50 (IC50, Infliximab (ng/ml)/IC50, scFv (ng/ml)) (recombinant human TNFα [2]): 94 ratio
Neutralization of TNF in L929 assay, rel. IC90 (IC90, Infliximab (ng/ml)/IC90, scFv (ng/ml)) (recombinant human TNFα [2]): 4.5 ratio
Species specificity in L929 assay IC50 (ng/ml), human (recombinant human TNFα [2]): 0.8 ng/mL
B3: humanized scFv 16-19-B11-sc02 (structural graft) (scFv)
scFv: B1 scFv with T23N, D71E, S78G, E82A, A156K, G182A, R205L
